From patent publication US20200354457A1 (Hoffmann-La Roche, published 2020) come the findings set out here.

Experiment [1] deals with T1, biotinylated MCSP antigen (amino acids 1553 to 2184 of matured melanoma-associated chondroitin sulfate … (Homo sapiens (Human), UniProt Q6UVK1 1582-2213, limits assumed, biotin on the C-terminal avi-tag)).
T1 construct: The entry may include the leader; also called recombinant MCSP
T1 sequence: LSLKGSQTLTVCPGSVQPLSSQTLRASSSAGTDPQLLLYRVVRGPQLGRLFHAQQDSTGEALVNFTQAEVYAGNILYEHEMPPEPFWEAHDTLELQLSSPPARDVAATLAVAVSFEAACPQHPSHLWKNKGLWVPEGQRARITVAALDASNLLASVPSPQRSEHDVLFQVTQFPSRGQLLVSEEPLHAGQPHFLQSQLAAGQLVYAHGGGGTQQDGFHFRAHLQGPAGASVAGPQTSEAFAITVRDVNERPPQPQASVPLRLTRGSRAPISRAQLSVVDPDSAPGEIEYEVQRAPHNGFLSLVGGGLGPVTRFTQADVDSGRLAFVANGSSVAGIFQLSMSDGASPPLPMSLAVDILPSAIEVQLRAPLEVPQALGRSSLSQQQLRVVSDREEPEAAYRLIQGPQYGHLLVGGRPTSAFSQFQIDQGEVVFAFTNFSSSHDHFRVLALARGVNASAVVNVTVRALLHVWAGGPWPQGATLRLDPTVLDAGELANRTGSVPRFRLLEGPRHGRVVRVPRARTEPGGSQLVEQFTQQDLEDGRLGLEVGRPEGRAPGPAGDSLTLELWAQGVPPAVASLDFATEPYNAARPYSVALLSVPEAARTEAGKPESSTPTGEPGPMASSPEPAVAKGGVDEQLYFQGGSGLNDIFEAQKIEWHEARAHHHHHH
The experiment can be described thus: ELISA, biotinylated MCSP antigen on neutravidin plates, bacterial supernatants, anti-Flag/HRP. (In general: An ELISA detects its analyte on a solid surface through an enzyme-linked reagent.)

Experiment [2] has as its target T2, human LAG3 on recombinant CHO cells (human, UniProt P18627 23-525).
T2 construct: whole, on cells; also called Lag3 cells; recombinant CHO cells expressing Lag3
T2 sequence (looked up): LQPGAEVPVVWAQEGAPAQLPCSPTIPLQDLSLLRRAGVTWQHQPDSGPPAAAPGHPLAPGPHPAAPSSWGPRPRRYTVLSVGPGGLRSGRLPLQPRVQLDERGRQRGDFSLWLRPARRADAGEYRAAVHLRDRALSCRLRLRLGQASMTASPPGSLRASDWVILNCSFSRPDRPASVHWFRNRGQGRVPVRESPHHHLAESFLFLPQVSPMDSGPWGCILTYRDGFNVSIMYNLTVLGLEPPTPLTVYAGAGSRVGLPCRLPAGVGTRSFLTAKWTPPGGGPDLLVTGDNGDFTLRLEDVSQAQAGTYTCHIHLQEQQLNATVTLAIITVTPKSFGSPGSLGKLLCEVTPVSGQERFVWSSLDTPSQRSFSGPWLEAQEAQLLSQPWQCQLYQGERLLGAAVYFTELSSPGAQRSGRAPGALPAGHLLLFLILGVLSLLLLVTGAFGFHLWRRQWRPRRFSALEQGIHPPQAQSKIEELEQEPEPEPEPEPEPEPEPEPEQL
The experiment in a line: cell ELISA on CHO cells expressing human LAG3.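 Further: bivalent Fc-format binders titrated in threefold steps from 6 µg/mL, incubated with the cells 2 h at 4 °C, bound antibody detected by HRP-coupled anti-human IgG.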

The target in experiment [3] is T3, soluble human Lag3-IgG1-Fc with biotinylated C-terminal Avi-tag (human, biotin on the C-terminal Avi-tag).
T3 construct: also called LAG3-Fc-avi; biotinylated LAG3-Fc antigen
The experiment can be described thus: A375 MHCII competition ELISA at 3 µg/ml, biotinylated Lag3 250 ng/ml; competitor MHCII on A375 cells.

Experiment [4] has as its target T4, recombinant human LAG3 Fc Chimera Protein (R&D Systems, 2319-L3) (human, UniProt P18627 23-450).
T4 construct: Bought reagent
T4 sequence (looked up): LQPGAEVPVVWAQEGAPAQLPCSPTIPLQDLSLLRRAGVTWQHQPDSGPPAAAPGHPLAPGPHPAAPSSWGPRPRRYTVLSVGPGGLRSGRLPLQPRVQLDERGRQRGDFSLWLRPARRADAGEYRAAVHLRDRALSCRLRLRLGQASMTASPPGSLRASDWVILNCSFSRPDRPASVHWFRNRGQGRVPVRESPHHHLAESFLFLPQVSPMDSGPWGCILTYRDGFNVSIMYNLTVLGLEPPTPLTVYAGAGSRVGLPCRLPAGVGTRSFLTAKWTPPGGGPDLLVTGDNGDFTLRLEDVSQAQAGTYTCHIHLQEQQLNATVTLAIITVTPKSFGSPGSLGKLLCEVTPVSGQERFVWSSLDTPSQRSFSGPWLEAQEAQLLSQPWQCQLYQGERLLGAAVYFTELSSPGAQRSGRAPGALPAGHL
The experiment in a line: ELISA, plate coated with human LAG3 Fc chimera.

Experiment [5] deals with T3, soluble human Lag3-IgG1-Fc with …. The experiment can be described thus: A375 MHCII competition ELISA, biotinylated Lag3 250 ng/ml; competitor MHCII on A375 cells.
Experiment [6] has as its target T4, recombinant human LAG3 Fc Chimera …. The experiment in a line: SPR (Biacore), antibody captured by anti-human Fc, human LAG-3 Fc chimera as analyte, 25 C.
Experiment [7] deals with T5, murine LAG3-Fc antigen (R&D Systems, 3328-L3-050) (murine, UniProt Q61790 24-442).
T5 construct: Bought reagent
T5 sequence (looked up): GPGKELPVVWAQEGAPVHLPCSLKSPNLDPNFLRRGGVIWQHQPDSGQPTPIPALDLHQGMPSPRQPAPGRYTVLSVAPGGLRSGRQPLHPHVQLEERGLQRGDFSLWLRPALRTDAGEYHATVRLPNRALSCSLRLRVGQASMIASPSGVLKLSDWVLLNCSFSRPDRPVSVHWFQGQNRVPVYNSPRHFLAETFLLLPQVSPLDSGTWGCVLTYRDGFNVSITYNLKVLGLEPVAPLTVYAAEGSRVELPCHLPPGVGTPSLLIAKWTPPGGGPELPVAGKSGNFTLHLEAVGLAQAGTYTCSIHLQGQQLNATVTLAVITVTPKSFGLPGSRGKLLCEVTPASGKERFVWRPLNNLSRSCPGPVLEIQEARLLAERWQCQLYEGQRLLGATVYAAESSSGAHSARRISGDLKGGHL
The experiment can be described thus: ELISA using murine LAG3-Fc antigen.

Experiment [8] addresses T6, Lag3 on cynomolgus PBMC/T cells (cynomolgus).
T6 construct: whole, on cells
The experiment can be described thus: flow cytometry, non-activated cynomolgus PBMC, 10 µg/ml. (In general: A flow cytometer gives signals particle by particle.)

The target of experiment [9] is T7, Lag3 on Lag3+ NFAT Jurkat effector cells (Promega #CS194801). The experiment can be described thus: cell-based or functional assay.
The target of experiment [10] is T4, recombinant human LAG3 Fc Chimera …. The experiment in a line: SPR (Biacore), aVH-Fc captured by anti-human Fc, human LAG-3 Fc chimera as analyte, 25 C. (SPR reads the build-up and loss of mass on a sensor chip optically.)
The target in experiment [11] is T7, Lag3 on Lag3+ NFAT Jurkat effector …. The experiment in a line: cell-based or functional assay. This is another data set of the same source.
For experiment [12], the target named is T6, Lag3 on cynomolgus PBMC/T cells. The experiment in a line: flow cytometry, CD3/CD28-activated cynomolgus PBMC, 10 µg/ml.
For experiment [13], the target named is T8, biotinylated DR5-Fc-avi (extracellular domain of Death receptor 5, amino acids 1 to 152, fused to human IgG1 … (biotin on the C-terminal avi-tag)).
T8 construct: also called DRS; Death receptor 5 ECD
The experiment can be described thus: ELISA, biotinylated DR5 antigen on neutravidin plates, bacterial supernatants, anti-Flag/HRP.

Numbering of substitutions follows the chain as printed. Several values for one entry are separate records, joined by “and”; a condition that tells them apart may be missing. Equal entries are not always repeated.

The term % Inhibition denotes the share of the control response that was lost under treatment. The low end stands for a weak effect, the high end for a strong effect. As a reminder, the EC50 is the midpoint of the concentration-response curve. In general, IC50 refers to the concentration that inhibits the measured activity by half. Lower therefore signals greater potency in that assay. Broadly, the koff is the first-order rate constant of dissociation.

B1: SEQ ID NO 61 (VHH)
VHH: EVQLVESGGGLVQPGGSLRLSCAASSFNIKDTYIGWVRRAPGKGTELVAGIYCEAGITRYADSVKGRFTISCDTSKNTAYLQMNSLRAEDTAVYYCAGKGIGNYFDYWGQGTTVTVSS
notes: is one of clones 3, 25, 44, 57.1; also called MCSP-specific aVH
For the molecule B1, the binding result in experiment [1] was “binds”.

B2: SEQ ID NO 59 (VHH)
VHH: EVQLVESGGGLVQPGGSLRLSCAASSFNIKDTYIGWVRRAPGKGTELVADIYCSEGSTRYADSVKGRFTISCDTSKNTAYLQMNSLRAEDTAVYYCAAVSDYVVFYYWGQGTTVTVSS
notes: as for B1
In the case of B2, the binding result in experiment [1] was “binds”.

B3: control antibody MDX25F7 (antibody, V domains shown)
VH: QVQLQQWGAGLLKPSETLSLTCAVYGGSFSDYYWNWIRQPPGKGLEWIGEINHNGNTNSNPSLKSRVTLSLDTSKNQFSLKLRSVTAADTAVYYCAFGYSDYEYNWFDPWGQGTLVTVSS
VL: EIVLTQSPATLSLSPGERATLSCRASQSISSYLAWYQQKPGQAPRLLIYDASNRATGIPARFSGSGSGTDFTLTISSLEPEDFAVYYCQQRSNWPLTFGQGTNLEIK
Take B3: the OD max in [2] was determined as 2.06 OD. The “% Inhibition” value in experiment [3] was determined as 90.4%. Moreover, in [4], the EC50 was 0.0031 µg/mL and 0.02 nM; the OD max came out at 3.39 OD. For the same molecule, the 50% inhibitory concentration (IC50) in experiment [5] was 0.127 µg/mL and 0.8 nM. Also, in experiment [6], the koff is 0.00039 s⁻¹ and the t1/2 was 0.5 h.

B4: bivalent P9G1 aVH-Fc (Fc fusion)
chain: EVQLVESGGGLVQPGGSLRLSCAASGFNIKDTCIGWVRRAPGKGTELVAEICQDIGYTRYADSVKGRFTISADTSKNTAYLQMNSLRAEDTAVYYCAGEEGATNFKYWGQGTTVTVSSGGGGSGGGGSDKTHTCPPCPAPEAAGGPSVFLFPPKPKDTLMISRTPEVTCVVVDVSHEDPEVKFNWYVDGVEVHNAKTKPREEQYNSTYRVVSVLTVLHQDWLNGKEYKCKVSNKALGAPIEKTISKAKGQPREPQVYTLPPSRDELTKNQVSLTCLVKGFYPSDIAVEWESNGQPENNYKTTPPVLDSDGSFFLYSKLTVDKSRWQQGNVFSCSVMHEALHNHYTQKSLSLSPGK
With B4, in experiment [2], the EC50 is 0.0173 µg/mL and 0.2 nM; the OD max amounted to 1.2 OD. For the same molecule, in [7], the binding result is “no binding”. The “Percentage of Lag3 positive cells” value in experiment [8] amounted to 24.4%. For the same molecule, in [9], the “EC50 of restoration of the NFAT luciferase signal (NFAT Lag3 reporter assay: Lag3+ Jurkat, Raji cells, SED)” value turned out to be 0.65 µg/mL. In addition, in experiment [10], the koff is 2e-05 s⁻¹ and the t1/2 turned out to be 9.82 h. Moreover, in experiment [3], the “% Inhibition” value came out at 96.3%. In experiment [11], the “IC50 for near-complete reduction of luciferase activity (modified NFAT Lag3 reporter assay, Lag3+ Jurkat cells alone)” value came out at 0.038 µg/mL. Besides, in experiment [4], the EC50 is 0.0132 µg/mL and 0.2 nM; the OD max was found to be 1.9 OD. Moreover, in experiment [12], the “Percentage of Lag3 positive cells” value is 54.1%. Besides, the IC50 in [5] is 0.0408 µg/mL and 0.5 nM.

B5: bivalent P10D1 aVH-Fc (Fc fusion)
chain: B4 chain with N28S, G35A, Q53E, G98A, E99K, G101A, A102G, T103V, N104G, K106D
As to B5, in [2], the EC50 was 0.029 µg/mL and 0.4 nM; the OD max came to 1.2 OD. For the same molecule, in experiment [7], the binding result is “no binding”. Moreover, in experiment [8], the “Percentage of Lag3 positive cells” value amounted to 16.9%. Further, in experiment [9], the “EC50 of restoration of the NFAT luciferase signal (NFAT Lag3 reporter assay: Lag3+ Jurkat, Raji cells, SED)” value stood at 4.14 µg/mL. Also, in experiment [10], the off-rate constant (koff) stood at 0.00011 s⁻¹ and the t1/2 is 1.7 h. For the same molecule, in experiment [3], the “% Inhibition” value came to 93.4%. For the same molecule, in experiment [11], the “IC50 for near-complete reduction of luciferase activity (modified NFAT Lag3 reporter assay, Lag3+ Jurkat cells alone)” value amounted to 0.104 µg/mL. In addition, in experiment [4], the EC50 is 0.113 µg/mL and 1.5 nM; the OD max stood at 0.9 OD. Further, the “Percentage of Lag3 positive cells” value in [12] was 61.7%. In [5], the IC50 was 0.0933 µg/mL and 1.2 nM.

B6: SEQ ID NO 28 (VHH)
VHH: EVQLVESGGGLVQPGGSLRLSCAASGFNIKDTYIGWVRRAPGKGEELVARIYPTNGYTRYADSVKGRFTISADTSKNTAYLQMNSLRAEDTAVYYCAKRSHYSYFDYWGQGTLVTVSS
notes: Tested as bacterial supernatant; the range 21-28 may alternate DNA and protein entries
Take B6: the binding result in [13] is “binds”.

B7: SEQ ID NO 22 (VHH)
VHH: EVQLVESGGGLVQPGGSLRLSCAASGFNIKDTYIGWVRRAPGKGEELVARIYPTNGYTRYADSVKGRFTISADTSKNTAYLQMNSLRAEDTAVYYCAKYVRYFDYWGQGTLVTVSS
notes: as for B6
Regarding B7, in [13], the binding result is given as “binds”.

B8: SEQ ID NO 24 (VHH)
VHH: EVQLVESGGGLVQPGGSLRLSCAASGFNIKDTYIGWVRRAPGKGEELVARIYPTNGYTRYADSVKGRFTISADTSKNTAYLQMNSLRAEDTAVYYCAKYYPRTYLDFDYWGQGTLVTVSS
notes: as for B6
With B8, the binding result in experiment [13] is “binds”.
